Source: article PMC5640805

Assays:
[1] = target: WITO SOSIP.664 trimer (HIV-1 (isolate WITO4160.33)); test: SEC; PGT145-affinity-purified SOSIPs on a Superdex 200 10-300 GL column in PBS
[2] = target: WITO SOSIP.664 trimer (HIV-1 (isolate WITO4160.33)); test: negative-stain EM; PGT145-purified SOSIPs; class averages
[3] = target: MGRM8 SOSIP.664 trimer (HIV-1 (isolate MGRM_AG_002_8)); test: SEC; PGT145-affinity-purified SOSIPs on a Superdex 200 10-300 GL column in PBS
[4] = target: MGRM8 SOSIP.664 trimer (HIV-1 (isolate MGRM_AG_002_8)); test: negative-stain EM; PGT145-purified SOSIPs; class averages
[5] = target: C108 SOSIP.664 trimer (HIV-1 (isolate C108.c03)); test: SEC; PGT145-affinity-purified SOSIPs on a Superdex 200 10-300 GL column in PBS
[6] = target: C108 SOSIP.664 trimer (HIV-1 (isolate C108.c03)); test: negative-stain EM; PGT145-purified SOSIPs; class averages
[7] = target: CRF250 SOSIP.664 trimer (HIV-1 (isolate CRF-T250-4)); test: SEC; PGT145-affinity-purified SOSIPs on a Superdex 200 10-300 GL column in PBS
[8] = target: CRF250 SOSIP.664 trimer (HIV-1 (isolate CRF-T250-4)); test: negative-stain EM; PGT145-purified SOSIPs; class averages

WITO SOSIP.664 trimer (complex)
stoichiometry N [1]: 3 | stoichiometry N [2]: 3

MGRM8 SOSIP.664 trimer (complex)
stoichiometry N [3]: 3 | stoichiometry N [4]: 3

C108 SOSIP.664 trimer (complex)
stoichiometry N [5]: 3 | stoichiometry N [6]: 3

CRF250 SOSIP.664 trimer (complex)
stoichiometry N [7]: 3 | stoichiometry N [8]: 3
